Results from paper PMC7950113.
One block for each substance: values may come before it.

Tests used:
Experiment in all cases: Co-AP mass spectrometry with TMT quantification
Conditions in all cases: TMT intensities of interactors normalized to Tg intensities, read off a plot
[1] = target: glucosidase II alpha subunit [human (endogenous in HEK293 cells)]
[2] = target: protein disulfide isomerase family A member 3 [human (endogenous in HEK293 cells)]
[3] = target: SEL1L adaptor subunit of ERAD E3 ubiquitin ligase [human (endogenous in HEK293 cells)]
[4] = target: ER degradation enhancing alpha-mannosidase-like 3 [human (endogenous in HEK293 cells)]
[5] = target: oligosaccharyl transferase complex catalytic subunit B [human (endogenous in HEK293 cells)]
[6] = target: RAD-dependent oxidoreductase domain containing 2 [human (endogenous in HEK293 cells)]
[7] = target: OS9 endoplasmic reticulum lectin [human (endogenous in HEK293 cells)]
[8] = target: calnexin [human (endogenous in HEK293 cells)]
[9] = target: calreticulin [human (endogenous in HEK293 cells)]
[10] = target: UDP-glucose glycoprotein glucosyltansferase 1 [human (endogenous in HEK293 cells)]

Substance: FLAG-tagged thyroglobulin, WT mutant L2284P [human] / SEL1L adaptor subunit of ERAD E3 ubiquitin ligase [human (endogenous in HEK293 cells)] chain 1 L2265P
screen value [3]: 0.49 log2

Substance: FLAG-tagged thyroglobulin, WT mutant A2234D [human] / ER degradation enhancing alpha-mannosidase-like 3 [human (endogenous in HEK293 cells)] chain 1 A2215D
screen value [4]: 0.2 log2

Substance: FLAG-tagged thyroglobulin, WT mutant C1264R [human] / SEL1L adaptor subunit of ERAD E3 ubiquitin ligase [human (endogenous in HEK293 cells)] chain 1 C1245R
screen value [3]: 0.43 log2

Substance: FLAG-tagged thyroglobulin, WT mutant G2341R [human] / RAD-dependent oxidoreductase domain containing 2 [human (endogenous in HEK293 cells)] chain 1 G2322R
screen value [6]: 0.45 log2

Substance: FLAG-tagged thyroglobulin, WT mutant L2284P [human] / OS9 endoplasmic reticulum lectin [human (endogenous in HEK293 cells)] chain 1 L2265P
screen value [7]: 0.57 log2

Substance: FLAG-tagged thyroglobulin, WT mutant C1264R [human] / RAD-dependent oxidoreductase domain containing 2 [human (endogenous in HEK293 cells)] chain 1 C1245R
screen value [6]: 0.42 log2

Substance: FLAG-tagged thyroglobulin, WT mutant L2284P [human] / RAD-dependent oxidoreductase domain containing 2 [human (endogenous in HEK293 cells)] chain 1 L2265P
screen value [6]: 0.58 log2

Substance: FLAG-tagged thyroglobulin, WT mutant A2234D [human] / SEL1L adaptor subunit of ERAD E3 ubiquitin ligase [human (endogenous in HEK293 cells)] chain 1 A2215D
screen value [3]: 0.57 log2

Substance: FLAG-tagged thyroglobulin, WT mutant G2341R [human] / SEL1L adaptor subunit of ERAD E3 ubiquitin ligase [human (endogenous in HEK293 cells)] chain 1 G2322R
screen value [3]: 0.44 log2

Substance: FLAG-tagged thyroglobulin, WT mutant A2234D [human] / UDP-glucose glycoprotein glucosyltansferase 1 [human (endogenous in HEK293 cells)] chain 1 A2215D
screen value [10]: 0.38 log2

Substance: FLAG-tagged thyroglobulin, WT mutant C1264R [human] / ER degradation enhancing alpha-mannosidase-like 3 [human (endogenous in HEK293 cells)] chain 1 C1245R
screen value [4]: 0.07 log2

Substance: FLAG-tagged thyroglobulin, WT mutant C1264R [human] / UDP-glucose glycoprotein glucosyltansferase 1 [human (endogenous in HEK293 cells)] chain 1 C1245R
screen value [10]: 0.25 log2

Substance: FLAG-tagged thyroglobulin, WT mutant G2341R [human] / UDP-glucose glycoprotein glucosyltansferase 1 [human (endogenous in HEK293 cells)] chain 1 G2322R
screen value [10]: 0.64 log2

Substance: FLAG-tagged thyroglobulin, WT mutant A2234D [human] / RAD-dependent oxidoreductase domain containing 2 [human (endogenous in HEK293 cells)] chain 1 A2215D
screen value [6]: 0.67 log2

Substance: FLAG-tagged thyroglobulin, WT mutant G2341R [human] / ER degradation enhancing alpha-mannosidase-like 3 [human (endogenous in HEK293 cells)] chain 1 G2322R
screen value [4]: 0.09 log2

Substance: FLAG-tagged thyroglobulin, WT mutant A2234D [human] / OS9 endoplasmic reticulum lectin [human (endogenous in HEK293 cells)] chain 1 A2215D
screen value [7]: 0.83 log2

Substance: FLAG-tagged thyroglobulin, WT mutant C1264R [human] / OS9 endoplasmic reticulum lectin [human (endogenous in HEK293 cells)] chain 1 C1245R
screen value [7]: 0.39 log2

Substance: FLAG-tagged thyroglobulin, WT mutant L2284P [human] / ER degradation enhancing alpha-mannosidase-like 3 [human (endogenous in HEK293 cells)] chain 1 L2265P
screen value [4]: 0.2 log2

Substance: FLAG-tagged thyroglobulin, WT mutant G2341R [human] / OS9 endoplasmic reticulum lectin [human (endogenous in HEK293 cells)] chain 1 G2322R
screen value [7]: 0.73 log2

More lines, now with the values ahead:

screen value [1]: 0.26 log2
Substance: FLAG-tagged thyroglobulin, WT mutant L2284P [human] / glucosidase II alpha subunit [human (endogenous in HEK293 cells)] chain 1 L2265P

screen value [2]: 0.16 log2
Substance: FLAG-tagged thyroglobulin, WT mutant A2234D [human] / protein disulfide isomerase family A member 3 [human (endogenous in HEK293 cells)] chain 1 A2215D

screen value [1]: 0.16 log2
Substance: FLAG-tagged thyroglobulin, WT mutant C1264R [human] / glucosidase II alpha subunit [human (endogenous in HEK293 cells)] chain 1 C1245R

screen value [5]: -0.21 log2
Substance: FLAG-tagged thyroglobulin, WT mutant C1264R [human] / oligosaccharyl transferase complex catalytic subunit B [human (endogenous in HEK293 cells)] chain 1 C1245R

screen value [2]: 0.35 log2
Substance: FLAG-tagged thyroglobulin, WT mutant C1264R [human] / protein disulfide isomerase family A member 3 [human (endogenous in HEK293 cells)] chain 1 C1245R

screen value [8]: -0.1 log2
Substance: FLAG-tagged thyroglobulin, WT mutant A2234D [human] / calnexin [human (endogenous in HEK293 cells)] chain 1 A2215D

screen value [8]: 0.06 log2
Substance: FLAG-tagged thyroglobulin, WT mutant G2341R [human] / calnexin [human (endogenous in HEK293 cells)] chain 1 G2322R

screen value [5]: 0.26 log2
Substance: FLAG-tagged thyroglobulin, WT mutant G2341R [human] / oligosaccharyl transferase complex catalytic subunit B [human (endogenous in HEK293 cells)] chain 1 G2322R

screen value [1]: 0.36 log2
Substance: FLAG-tagged thyroglobulin, WT mutant G2341R [human] / glucosidase II alpha subunit [human (endogenous in HEK293 cells)] chain 1 G2322R

screen value [8]: -0.24 log2
Substance: FLAG-tagged thyroglobulin, WT mutant C1264R [human] / calnexin [human (endogenous in HEK293 cells)] chain 1 C1245R

screen value [2]: 0.55 log2
Substance: FLAG-tagged thyroglobulin, WT mutant G2341R [human] / protein disulfide isomerase family A member 3 [human (endogenous in HEK293 cells)] chain 1 G2322R

screen value [9]: 0.18 log2
Substance: FLAG-tagged thyroglobulin, WT mutant C1264R [human] / calreticulin [human (endogenous in HEK293 cells)] chain 1 C1245R

screen value [5]: -0.11 log2
Substance: FLAG-tagged thyroglobulin, WT mutant A2234D [human] / oligosaccharyl transferase complex catalytic subunit B [human (endogenous in HEK293 cells)] chain 1 A2215D

screen value [10]: 0.58 log2
Substance: FLAG-tagged thyroglobulin, WT mutant L2284P [human] / UDP-glucose glycoprotein glucosyltansferase 1 [human (endogenous in HEK293 cells)] chain 1 L2265P

screen value [8]: 0.13 log2
Substance: FLAG-tagged thyroglobulin, WT mutant L2284P [human] / calnexin [human (endogenous in HEK293 cells)] chain 1 L2265P

screen value [2]: 0.6 log2
Substance: FLAG-tagged thyroglobulin, WT mutant L2284P [human] / protein disulfide isomerase family A member 3 [human (endogenous in HEK293 cells)] chain 1 L2265P

screen value [1]: 0.2 log2
Substance: FLAG-tagged thyroglobulin, WT mutant A2234D [human] / glucosidase II alpha subunit [human (endogenous in HEK293 cells)] chain 1 A2215D

screen value [5]: 0.07 log2
Substance: FLAG-tagged thyroglobulin, WT mutant L2284P [human] / oligosaccharyl transferase complex catalytic subunit B [human (endogenous in HEK293 cells)] chain 1 L2265P
